Measured values published in patent US20210261685A1 (Alector, published 2021).
Changes are numbered by the printed parent chain.

B1: MTK-12 (antibody, human IgG1, V domains shown)
VH: QVQLQQSGPQLVRPGASVKISCKASGYSFTSHWMHWVKQRPGQGLEWIGMIDPSDGESRLNQKFKDKATLTVDKSSSTAYMQLSSPTFEDSAVYYCARGIYYYGITYAMDYWGQGTSVTVSS
VL: QIVLTQSPAIMSASPGEKVTMTCSASSSVSYMYWYQQKPRSSPRLLIYDTSNLASGVPVRFSGSGSGTSYSLTISRMEAEDAATYYCQQWSSYPLTFGAGTKLELK
B2: MTK-03 (antibody, human IgG1, V domains shown)
VH: DVQLQESGPGLVKPSQSLSLTCSVTGYSITSGYYWNWIRQFPGNTLEWMGYMSFDGDNKFNPSLKNRISITRDTSKNQFFLRLNSVTTEDTATYYCARGGYNYGSTEANWGQGTLVTVSA
VL: QIVLTQSPAIMSAFPGEKVTITCSASSSVNYMHWFQQKPGTSPKLWIYSTSNLASGVPARFSGSGSGTSYSLTISRMEAEDAATYYCQQRSSYPFTFGSGTKLEIK
B3: MTK-07 (antibody, human IgG1, V domains shown)
VH: B2 VH with A120T
VL: B2 VL with N30T, Y48F
B4: MTK-20 (antibody, human IgG1, V domains shown)
VH: QIQLVQSGPELKKPGETVKISCKASGYTFTNYGMTWVKQAPGKGLKWMGWINTYTGEPTYADDFKGRFALSLETSASTAYLQINNLKNEDTATYFCARGGGRLGLRPLDYWGQGTTLTVSS
VL: DIQMTQTTSSLSASLGDRVTISCRASQDINNYLNWYQQKPDGTVKLLIYYTSRLHSGVPSRFSGSGSGTDYSLTISNLEQEDIATYFCQQGNTLPWTFGGGTKLEIK
B5: MTK-18 (antibody, human IgG1, V domains shown)
VH: B4 VH with N31H, L70F, R102Q
VL: B4 VL with I21F, D28A, N30S
B6: MTK-21 (antibody, human IgG1, V domains shown)
VH: B4 VH with Y32F, K38R, K43M, G44D, T59K, N84T, L86F
VL: B4 VL with R53S, S76T, K103R
B7: MTK-11 (antibody, human IgG1, V domains shown)
VH: QVQLKQSGPGLVQPSQSLSITCTVSGFSLTDYGVHWVRQSPGKGLEWLGVIWSSGTTDYNEAFISRLSISKDNSKSHVFFKMNSLQAIDTAIYYCARKGHDPYAMDYWGQGTSVTVSS
VL: QIVLTQSPAIMSASLGERVTMTCTASSSISSSYFHWYQQKPGSSPKLWIYSTSNLPSGVPARFSGSGSGTSYSLTISSMEAEDAATYYCHQYYRSPLTFGAGTKLELK
B8: MTK-33 (antibody, human IgG1, V domains shown)
VH: QVQLQQPGPELVRPGTSVKLSCKASGYTFTSYWMHWIKQRPGQGLEWIGVIDPSDNYINYNQKFKGKATLTVDTSSSTAYLQLSSLTSEDSAVYYCAREAGTRGYFDYWGQGTTLTVSS
VL: SIVMTQTPKFLLVSAGDRVIITCKASQSVSNTVAWYQQKPGQSPKLLIYYASNRYTGVPDRFTGSGYGTDFTFTISTVQAEDLAVYFCQQDYRSPFTFGSGTQLEMK
B9: MTK-19 (antibody, human IgG1, V domains shown)
VH: EVQLQQSGPELVKPGASVKISCKTSGYTFTEYTMHWVKQSHGKSLEWLGGFNPNNVITSYNQRFQGRATLTVDKSSSTAYMELRSLTSDDSAVYYCTRGDLLWSLLLPGNYFDYWGQGTTLTVSS
VL: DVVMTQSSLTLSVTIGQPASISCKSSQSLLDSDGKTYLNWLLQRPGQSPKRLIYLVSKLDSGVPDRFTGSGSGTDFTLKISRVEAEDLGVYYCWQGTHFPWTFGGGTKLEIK
B10: MTK-17 (antibody, human IgG1, V domains shown)
VH: QIQLVQSGPELKKPGETVKISCKASGYTFTNFGMNWVKQAPGKGLKWMGWINTYTGEPTYADDFKGRFAFSLETSASTAYLQINNLKNEDTATYFCSRGAVLRAGAMDCWGQGTSVTVSS
VL: DIQMTQSSSYLSVSLGGRVTITCKASDHINNWLAWYQQKPGNAPRLLISGATSLETGVPSRFSGSGSGKDYTLSITSLQTEDVATYYCQQYWSTPRTFGGGTKLEIK
B11: MTK-15 (antibody, human IgG1, V domains shown)
VH: QIQLVQSGPELKKPGETVKISCKASGYTFTNYGVHWVKQAPGKGLKWMGWINTYTGEPTYADDFKGRFAFSLETSASTAYLQINNLKNEDMATYFCARGNRYAYMDYWGQGTSVTVSS
VL: QIVLSQSPAILSASPGEKVTMTCRASSSVSYMHWYQQKSGSSPKPWIYATSNLASGVPARFSGSGSGTSYSLTISRVEAEDAATYYCQQWSSNPRTFGGGTKLEIK
B12: MTK-04 (antibody, human IgG1, V domains shown)
VH: QIQLVQSGPELKKPGETVKISCKASGYTFTNYGMNWVKQAPGKGLKCMGWINTYTGEPTYADDFKGRFAFSLETSASTAYLQINNLKNEDMATYFCAKYDNYAWFAYWGQGTLVTVSA
VL: B11 VL with I10F, Q36L, S39P, A59V, K106R
B13: MTK-05 (antibody, human IgG1, V domains shown)
VH: QVQLQQSGAELVQPGTSVRLSCKTSGYTFTSYWIQWVKQRPGQGLGWIGEIFPGTGTTYYNEKFKGKATLTIDTSSSTAYMQLSSLTSEDSAVYFCARDGAYFDVWGAGTTVTVSS
VL: DIQMTQSPASLSASVGETVTFTCRASENIFSYLAWYQQKQGKSPQLLVYNAKTLAEGVPSRFSGSGSGTHFSLKINSLQPEDFGSYYCLHHYGTPLTFGAGTKLELK
B14: MTK-01 (antibody, human IgG1, V domains shown)
VH: B12 VH with S77T, M91T, K98R, Y99R, N101R, A103T
VL: B11 VL with S39P, R95P

target: T1, human MerTK extracellular domain (ECD), recombinant (human, UniProt Q12866 21-505); assay: SPR, Carterra LSA, antibody immobilised
T1 construct: also called huMerTK; not shown: polyHis tag or TEVS/Thrombin/murine IgG2a Fc tag
T1 sequence: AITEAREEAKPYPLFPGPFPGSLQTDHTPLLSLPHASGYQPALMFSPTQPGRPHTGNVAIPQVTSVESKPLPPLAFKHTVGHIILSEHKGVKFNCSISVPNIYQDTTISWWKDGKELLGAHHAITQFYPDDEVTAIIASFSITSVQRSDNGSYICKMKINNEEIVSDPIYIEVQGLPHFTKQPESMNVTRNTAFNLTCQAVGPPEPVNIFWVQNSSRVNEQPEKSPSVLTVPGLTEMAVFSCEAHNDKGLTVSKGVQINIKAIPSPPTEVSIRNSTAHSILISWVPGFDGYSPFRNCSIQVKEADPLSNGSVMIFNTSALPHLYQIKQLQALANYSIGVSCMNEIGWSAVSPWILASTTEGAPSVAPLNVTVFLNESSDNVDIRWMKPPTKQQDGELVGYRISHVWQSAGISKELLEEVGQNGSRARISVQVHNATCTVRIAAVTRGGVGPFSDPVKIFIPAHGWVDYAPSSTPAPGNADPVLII
Method: (§1) Binding kinetics of human anti-MerTK IgG1 LALAPS antibodies of the present disclosure to human, cyno, and murine MerTK were evaluated using a Carterra LSA instrument (Carterra, Salt Lake City, Utah). Briefly, anti-MerTK antibodies were prepared by diluting to 10 μg/ml in 10 mM Acetate, pH 4.25 (Carterra), at 300 μl/well. A HC200M sensor chip (Carterra) was activated using the single channel flow cell with a 7-minute injection of a 1:1:1 mixture of 100 mM MES pH 5.5, 100 mM sulfo-NHS, 400 mM EDC (all reconstituted in MES pH 5.5; 100 μl of each mixed in vial immediately before running assay). After switching to the multi-channel array flow cell, the antibodies were injected over the activated chip in a 96-spot array for 15 minutes. The remaining unconjugated active groups on the chip were then blocked by injecting 1M Ethanolamine pH 8.5 (Carterra) for 7 minutes using the single channel flow cell.
(§2) After priming with running buffer (HBS-TE, Carterra) with 0.5 mg/ml BSA (Sigma), the immobilized anti-MerTK antibodies were tested for their ability to bind to several forms of recombinant MerTK extracellular domain, including human, cynomolgus, and mouse orthologs as described above. Estimates of affinity were generated by injecting each analyte over the entire antibody array using the single channel flow cell. MerTK analytes were diluted to 33.3, 100, and 300 nM in running buffer, and injected in serial from lowest to highest concentration without regeneration. Two buffer blanks were run between each series (one species per series). Data were processed and analyzed using NextGenKIT high-throughput kinetics analysis software (Carterra).
(§3) The equilibrium dissociation constants (KD) were then calculated from the fitted association and dissociation rate constants (k-on and k-off) for anti-MerTK antibodies of the present disclosure. Binding kinetic analysis was also performed on anti-MerTK antibodies H1 (BioLegend, Clone ID: 590H11G1E3), H2 (R&D systems, Clone ID: 125518), M6 (WO2016/106221), and CDX AB2000-A7 hIgG1 (WO2019/084307).

Binder	Kd
B1	5.3 nM
B2	54 nM
B3	43 nM
B4	9.3 nM
B5	18 nM
B6	40 nM
B7	3 nM
B8	6.5 nM
B9	2.4 nM
B10	25 nM
B11	2.7 nM
B12	33 nM
B13	6.7 nM

target: T2, murine MerTK extracellular domain (ECD), recombinant (mouse, UniProt Q60805 19-497); assay: SPR, Carterra LSA, antibody immobilised
T2 construct: also called moMerTK; mouse MerTK; not shown: polyHis tag or TEVS/Thrombin/murine IgG2a Fc tag
T2 sequence: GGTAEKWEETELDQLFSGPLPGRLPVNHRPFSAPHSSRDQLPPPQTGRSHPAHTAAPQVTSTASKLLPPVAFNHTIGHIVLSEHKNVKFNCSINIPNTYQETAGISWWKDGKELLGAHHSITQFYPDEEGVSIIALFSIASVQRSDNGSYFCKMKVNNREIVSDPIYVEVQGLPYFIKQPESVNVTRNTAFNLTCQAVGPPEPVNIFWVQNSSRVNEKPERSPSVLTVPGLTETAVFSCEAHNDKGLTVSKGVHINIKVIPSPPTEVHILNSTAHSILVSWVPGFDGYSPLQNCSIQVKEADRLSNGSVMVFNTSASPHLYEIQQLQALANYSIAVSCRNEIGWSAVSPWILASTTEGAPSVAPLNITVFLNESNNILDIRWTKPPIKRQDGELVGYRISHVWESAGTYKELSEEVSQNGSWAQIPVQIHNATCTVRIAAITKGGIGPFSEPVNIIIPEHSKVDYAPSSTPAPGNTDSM
Method: as §1, §2, §3

Binder	binding result	Kd
B1	no binding (tested: 300 nM)	–
B2	no binding (tested: 300 nM)	–
B3	no binding (tested: 300 nM)	–
B4	no binding (tested: 300 nM)	–
B5	no binding (tested: 300 nM)	–
B6	no binding (tested: 300 nM)	–
B7	no binding (tested: 300 nM)	–
B8	–	75 nM
B9	–	130 nM
B10	no binding (tested: 300 nM)	–
B14	no binding (tested: 300 nM)	–
B11	no binding (tested: 300 nM)	–
B12	no binding (tested: 300 nM)	–
B13	no binding (tested: 300 nM)	–

Target: T3, cyno MerTK extracellular domain (ECD), recombinant (cynomolgus monkey, UniProt Q12866 21-505 (human entry))
T3 construct: also called cynomolgus MerTK; not shown: polyHis tag or TEVS/Thrombin/murine IgG2a Fc tag
T3 chain: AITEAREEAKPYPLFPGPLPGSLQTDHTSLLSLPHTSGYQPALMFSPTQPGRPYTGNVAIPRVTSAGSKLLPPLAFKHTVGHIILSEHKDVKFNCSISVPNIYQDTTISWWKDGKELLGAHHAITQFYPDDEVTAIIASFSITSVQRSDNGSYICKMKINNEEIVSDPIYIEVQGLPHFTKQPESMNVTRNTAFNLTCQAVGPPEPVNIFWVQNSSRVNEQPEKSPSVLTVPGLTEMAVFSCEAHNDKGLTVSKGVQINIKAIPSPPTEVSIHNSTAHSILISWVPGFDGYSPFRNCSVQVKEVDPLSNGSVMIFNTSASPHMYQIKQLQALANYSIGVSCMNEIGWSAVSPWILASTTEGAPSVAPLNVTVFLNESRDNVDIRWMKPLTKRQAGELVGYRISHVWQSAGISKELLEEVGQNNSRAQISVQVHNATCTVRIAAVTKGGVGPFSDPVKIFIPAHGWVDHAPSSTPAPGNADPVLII
Assay: SPR, Carterra LSA, antibody immobilised
Method: as §1, §2, §3

Binder	binding result	Kd
B1	no binding (tested: 300 nM)	–
B2	–	55 nM
B3	–	53 nM
B4	–	9.2 nM
B5	–	18 nM
B6	–	43 nM
B7	–	2.9 nM
B8	–	6.6 nM
B9	–	12 nM
B10	–	24 nM
B14	–	99 nM
B11	–	3 nM
B12	–	44 nM
B13	no binding (tested: 300 nM)	–
